# Experiments:
# AncSZ = assay: phosphorylation enrichment, bacterial display (enrichment ratio); higher = better substrate or ligand; peptides without Tyr show the background
# EPHB1 = EPHB1 (UniProt P54762); assay: as above
# EPHB2 = EPHB2 (UniProt P29323); assay: as above
# FGFR1 = FGFR1 (UniProt P11362); assay: as above
# FGFR3 = FGFR3 (UniProt P22607); assay: as above
# Fer (mouse) = assay: as above
# Fes = Fes (UniProt P07332); assay: as above
# Fyn = Fyn (UniProt P06241); assay: as above
# Hck = Hck (UniProt P08631); assay: as above
# Sequence of Hck (P08631 whole entry, looked up): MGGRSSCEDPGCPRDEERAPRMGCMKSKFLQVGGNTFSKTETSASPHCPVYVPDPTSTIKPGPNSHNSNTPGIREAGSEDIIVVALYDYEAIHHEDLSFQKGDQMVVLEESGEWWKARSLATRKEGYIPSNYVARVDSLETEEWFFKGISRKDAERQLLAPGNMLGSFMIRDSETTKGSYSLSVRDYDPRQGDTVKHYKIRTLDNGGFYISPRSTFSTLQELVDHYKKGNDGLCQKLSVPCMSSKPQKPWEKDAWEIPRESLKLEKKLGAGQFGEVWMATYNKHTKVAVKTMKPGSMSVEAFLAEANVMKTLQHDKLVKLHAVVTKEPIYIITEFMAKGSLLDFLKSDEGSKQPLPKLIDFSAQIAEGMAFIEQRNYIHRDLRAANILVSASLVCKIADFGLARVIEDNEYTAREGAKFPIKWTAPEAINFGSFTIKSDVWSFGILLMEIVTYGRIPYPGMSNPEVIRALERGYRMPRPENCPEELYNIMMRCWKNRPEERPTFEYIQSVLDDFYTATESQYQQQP
# Jak2 = Jak2 (UniProt O60674); assay: as above
# MERTK = MERTK (UniProt Q12866); assay: as above
# c-Abl (mouse) = assay: as above
# c-Src = assay: as above
# Grb2 SH2 = Grb2 SH2 (UniProt P62993); assay: SH2 binding enrichment of the phosphorylated peptide, bacterial display (enrichment ratio); higher = better substrate or ligand; peptides without Tyr show the background
# Sequence of Grb2 SH2 (P62993 whole entry, looked up): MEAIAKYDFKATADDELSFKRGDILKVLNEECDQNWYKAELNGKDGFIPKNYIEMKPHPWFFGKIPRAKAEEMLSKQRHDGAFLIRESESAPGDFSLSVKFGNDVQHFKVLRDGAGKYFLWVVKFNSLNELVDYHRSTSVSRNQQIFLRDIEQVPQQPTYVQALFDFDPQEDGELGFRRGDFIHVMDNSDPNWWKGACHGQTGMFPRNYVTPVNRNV
# SHP2-C SH2 = assay: as above
# c-Src SH2 = assay: as above
# 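Throughout, for SH2 binding enrichment of the phosphorylated peptide, bacterial display: peptide library displayed on the E. coli surface as eCPX fusions, selected cells deep-sequenced, score is each peptide's frequency after selection divided by its frequency in the input.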
# 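Throughout, for phosphorylation enrichment, bacterial display: 11-residue human phosphosite peptides and single-mutation variants displayed on the E. coli surface, counted by deep sequencing, each peptide's frequency after selection divided by its frequency in the unselected input library; frequency after pTyr selection over input frequency; kinase dosed for 20-30% of maximal phosphorylation in three min.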
# Sequence of FGFR1 (P11362 whole entry, looked up): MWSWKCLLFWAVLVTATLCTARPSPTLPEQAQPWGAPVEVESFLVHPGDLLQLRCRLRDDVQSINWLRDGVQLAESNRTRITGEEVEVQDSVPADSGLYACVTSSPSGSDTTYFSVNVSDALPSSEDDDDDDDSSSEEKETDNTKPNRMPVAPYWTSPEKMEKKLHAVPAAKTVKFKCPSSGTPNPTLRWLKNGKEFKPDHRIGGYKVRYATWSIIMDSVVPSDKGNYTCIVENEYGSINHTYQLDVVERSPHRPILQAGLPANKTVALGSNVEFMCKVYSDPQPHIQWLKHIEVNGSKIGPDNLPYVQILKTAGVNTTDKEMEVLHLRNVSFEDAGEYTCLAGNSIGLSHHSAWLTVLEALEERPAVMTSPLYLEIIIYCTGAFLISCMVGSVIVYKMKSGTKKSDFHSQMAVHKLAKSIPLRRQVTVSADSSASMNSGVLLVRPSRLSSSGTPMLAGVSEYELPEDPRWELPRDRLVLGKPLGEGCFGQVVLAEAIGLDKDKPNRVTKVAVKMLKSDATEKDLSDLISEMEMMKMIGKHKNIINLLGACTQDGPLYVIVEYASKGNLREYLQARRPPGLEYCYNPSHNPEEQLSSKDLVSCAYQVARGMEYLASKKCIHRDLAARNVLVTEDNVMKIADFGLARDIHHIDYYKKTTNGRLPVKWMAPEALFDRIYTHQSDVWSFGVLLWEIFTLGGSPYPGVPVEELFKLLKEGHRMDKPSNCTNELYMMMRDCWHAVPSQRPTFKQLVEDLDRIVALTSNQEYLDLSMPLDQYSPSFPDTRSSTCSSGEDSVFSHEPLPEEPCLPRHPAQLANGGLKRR
# Sequence of EPHB2 (P29323 whole entry, looked up): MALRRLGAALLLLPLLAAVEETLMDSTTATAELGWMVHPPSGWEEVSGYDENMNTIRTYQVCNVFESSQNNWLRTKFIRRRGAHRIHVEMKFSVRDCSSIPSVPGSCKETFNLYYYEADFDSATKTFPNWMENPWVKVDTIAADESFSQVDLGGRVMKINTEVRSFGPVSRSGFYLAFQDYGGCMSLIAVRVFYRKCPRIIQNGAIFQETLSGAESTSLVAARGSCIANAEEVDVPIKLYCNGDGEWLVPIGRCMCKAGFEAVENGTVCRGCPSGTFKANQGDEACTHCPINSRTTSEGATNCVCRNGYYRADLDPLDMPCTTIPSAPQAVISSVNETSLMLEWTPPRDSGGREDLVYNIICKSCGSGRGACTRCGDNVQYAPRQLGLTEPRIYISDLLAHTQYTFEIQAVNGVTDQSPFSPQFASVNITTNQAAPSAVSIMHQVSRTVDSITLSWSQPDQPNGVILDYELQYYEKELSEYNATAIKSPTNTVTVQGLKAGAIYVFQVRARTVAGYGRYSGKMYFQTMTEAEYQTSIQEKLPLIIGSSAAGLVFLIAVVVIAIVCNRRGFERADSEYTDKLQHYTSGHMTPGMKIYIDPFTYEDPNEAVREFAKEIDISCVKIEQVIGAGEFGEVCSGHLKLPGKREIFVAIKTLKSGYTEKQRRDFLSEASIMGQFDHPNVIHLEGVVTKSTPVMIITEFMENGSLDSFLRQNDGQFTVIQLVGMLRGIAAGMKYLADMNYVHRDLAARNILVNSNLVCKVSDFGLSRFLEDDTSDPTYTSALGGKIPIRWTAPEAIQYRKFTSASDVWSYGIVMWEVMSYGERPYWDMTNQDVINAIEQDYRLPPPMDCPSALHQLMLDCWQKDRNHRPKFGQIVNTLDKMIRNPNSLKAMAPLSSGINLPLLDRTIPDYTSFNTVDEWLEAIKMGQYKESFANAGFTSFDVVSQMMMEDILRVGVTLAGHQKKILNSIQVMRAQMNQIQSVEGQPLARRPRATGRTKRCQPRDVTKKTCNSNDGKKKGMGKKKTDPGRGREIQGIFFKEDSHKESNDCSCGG
# Sequence of FGFR3 (P22607 whole entry, looked up): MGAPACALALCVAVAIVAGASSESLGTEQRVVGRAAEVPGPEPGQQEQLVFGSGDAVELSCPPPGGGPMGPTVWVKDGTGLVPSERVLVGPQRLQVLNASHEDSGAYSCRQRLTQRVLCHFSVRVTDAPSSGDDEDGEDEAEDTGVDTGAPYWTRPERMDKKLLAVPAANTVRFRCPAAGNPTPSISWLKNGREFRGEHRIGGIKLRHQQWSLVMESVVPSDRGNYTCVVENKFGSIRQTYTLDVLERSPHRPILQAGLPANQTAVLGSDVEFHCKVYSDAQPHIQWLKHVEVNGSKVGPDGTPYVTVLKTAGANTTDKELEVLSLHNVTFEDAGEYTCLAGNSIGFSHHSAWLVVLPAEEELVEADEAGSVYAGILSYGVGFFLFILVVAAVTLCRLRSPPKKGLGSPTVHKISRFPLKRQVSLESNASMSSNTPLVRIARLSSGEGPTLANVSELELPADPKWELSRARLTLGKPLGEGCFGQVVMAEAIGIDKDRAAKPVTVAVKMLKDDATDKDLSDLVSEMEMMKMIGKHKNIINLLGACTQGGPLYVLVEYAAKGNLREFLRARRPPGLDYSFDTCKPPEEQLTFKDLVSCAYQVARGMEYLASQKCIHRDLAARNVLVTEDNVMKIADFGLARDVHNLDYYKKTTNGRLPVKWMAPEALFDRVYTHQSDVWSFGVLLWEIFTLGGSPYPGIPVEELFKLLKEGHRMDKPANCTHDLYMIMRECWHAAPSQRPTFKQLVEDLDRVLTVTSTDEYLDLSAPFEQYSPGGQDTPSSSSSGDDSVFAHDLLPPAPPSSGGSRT
# Sequence of EPHB1 (P54762 whole entry, looked up): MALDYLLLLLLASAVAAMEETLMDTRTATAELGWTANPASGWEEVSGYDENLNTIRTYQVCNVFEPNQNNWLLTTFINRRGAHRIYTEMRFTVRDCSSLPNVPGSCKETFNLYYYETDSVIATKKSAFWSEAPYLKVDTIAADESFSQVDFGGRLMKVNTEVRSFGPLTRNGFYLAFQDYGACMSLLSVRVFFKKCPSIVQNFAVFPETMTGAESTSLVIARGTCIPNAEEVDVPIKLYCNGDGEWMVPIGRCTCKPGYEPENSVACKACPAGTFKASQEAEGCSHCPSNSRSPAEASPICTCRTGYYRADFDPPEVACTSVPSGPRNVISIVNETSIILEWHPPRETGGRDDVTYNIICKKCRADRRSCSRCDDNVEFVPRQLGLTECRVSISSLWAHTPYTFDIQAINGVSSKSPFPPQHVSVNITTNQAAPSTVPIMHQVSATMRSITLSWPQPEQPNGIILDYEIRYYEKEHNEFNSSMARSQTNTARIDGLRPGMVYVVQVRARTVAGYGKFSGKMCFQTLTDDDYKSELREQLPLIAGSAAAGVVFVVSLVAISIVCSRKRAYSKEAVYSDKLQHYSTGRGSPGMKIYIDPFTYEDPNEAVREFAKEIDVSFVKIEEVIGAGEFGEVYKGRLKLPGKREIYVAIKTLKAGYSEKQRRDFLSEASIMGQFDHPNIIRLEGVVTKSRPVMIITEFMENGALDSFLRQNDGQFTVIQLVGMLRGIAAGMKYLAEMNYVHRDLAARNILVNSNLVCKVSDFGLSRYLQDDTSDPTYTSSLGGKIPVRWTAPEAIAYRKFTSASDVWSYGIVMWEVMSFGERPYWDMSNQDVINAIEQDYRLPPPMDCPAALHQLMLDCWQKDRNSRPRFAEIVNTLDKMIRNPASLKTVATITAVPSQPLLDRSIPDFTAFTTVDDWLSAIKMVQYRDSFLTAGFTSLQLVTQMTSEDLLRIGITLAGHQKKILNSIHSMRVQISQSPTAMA
# Sequence of Fyn (P06241 whole entry, looked up): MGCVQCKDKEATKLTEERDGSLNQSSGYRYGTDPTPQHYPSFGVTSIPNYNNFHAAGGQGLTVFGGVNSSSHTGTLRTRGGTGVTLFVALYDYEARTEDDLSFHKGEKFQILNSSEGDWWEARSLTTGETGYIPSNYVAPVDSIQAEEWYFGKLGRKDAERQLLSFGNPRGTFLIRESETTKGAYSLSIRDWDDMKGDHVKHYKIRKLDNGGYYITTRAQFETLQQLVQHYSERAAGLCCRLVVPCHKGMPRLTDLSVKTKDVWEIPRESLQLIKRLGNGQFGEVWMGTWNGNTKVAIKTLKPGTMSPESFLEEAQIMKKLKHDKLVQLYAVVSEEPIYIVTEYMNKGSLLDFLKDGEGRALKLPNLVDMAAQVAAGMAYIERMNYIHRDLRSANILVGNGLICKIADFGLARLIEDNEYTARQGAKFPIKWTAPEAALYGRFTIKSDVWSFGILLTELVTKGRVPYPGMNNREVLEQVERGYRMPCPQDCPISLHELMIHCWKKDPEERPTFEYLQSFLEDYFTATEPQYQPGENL
Sequence,phosphorylation enrichment (AncSZ),phosphorylation enrichment (EPHB1),phosphorylation enrichment (EPHB2),phosphorylation enrichment (FGFR1),phosphorylation enrichment (FGFR3),phosphorylation enrichment (Fer (mouse)),phosphorylation enrichment (Fes),phosphorylation enrichment (Fyn),phosphorylation enrichment (Hck),phosphorylation enrichment (Jak2),phosphorylation enrichment (MERTK),phosphorylation enrichment (c-Abl (mouse)),phosphorylation enrichment (c-Src),SH2 binding enrichment (Grb2 SH2),SH2 binding enrichment (SHP2-C SH2),SH2 binding enrichment (c-Src SH2)
VAHAVYQAVLS [SMG1_Y549],0.899,9.09,7.85,0.656,0.591,8.18,0.935,5.92,8.28,0.666,4.22,1.14,4.58,1.11,0.828,1.02
VDGSLYETHPQ [HK1_Y417_K418E],1.26,1.5,2.37,0.441,0.607,9.06,0.861,1.13,2.09,0.653,1.18,0.541,0.918,0.828,0.661,0.503
VDGSVYELHPS [GCK_Y413_K414E],1.56,2.35,3.42,0.597,0.676,16,1.09,12.1,8.06,0.981,3.82,0.94,9.02,0.944,1.01,0.743
VDTFWYKFLKP [EPM2A_Y86_R91P],0.982,0.644,0.533,0.463,0.808,0.515,1.28,0.388,0.426,1.05,0.471,0.694,0.43,0.601,0.626,0.388
VDTRAYLTSAT [MT-CO1_Y304_F305L],0.671,0.589,0.438,0.518,0.723,0.488,0.763,0.436,0.377,0.603,0.393,0.637,0.414,0.774,0.569,0.439
VEDHDYEGGIG [TKT_Y564_Y563D],1.49,0.737,0.785,0.571,0.874,0.602,1.45,0.518,0.609,1.24,0.517,1.01,0.624,0.697,0.506,0.402
VEEDTYTMPST [PTK2_Y407_D402V],4.74,0.879,0.675,0.697,0.984,0.741,1.31,6.55,3.5,1.12,1.6,1.18,4.81,0.64,0.648,0.424
VEGIGYDFIPT [CBS_Y308],1.04,0.579,0.576,0.588,0.685,0.43,1.12,0.594,0.785,0.827,0.501,0.723,0.539,0.79,1.02,7.71
VFAPDYIAGVS [NOB1_Y366],1.05,0.657,0.646,0.537,0.807,0.647,1.38,0.585,0.651,0.934,0.547,0.844,0.55,0.927,0.755,0.544
VFGEEYEEQPR [ZMYM2_Y1033],1.39,0.585,0.767,0.614,0.731,0.514,1.39,0.534,0.526,1.23,0.386,0.709,0.443,1.01,0.971,0.679
VFPATYHPDHW [EFCAB12_Y544_YF],0.677,0.678,0.383,0.467,0.542,0.347,0.792,0.469,0.421,0.629,0.385,0.604,0.458,1.04,0.722,0.519
VGEGPYLLSDL [ABCC12_Y7_I9L],0.839,0.461,0.559,0.484,0.605,0.508,0.941,0.565,0.432,0.83,0.385,0.586,0.71,0.641,0.547,0.361
VGGRIYIDDGL [PKLR_Y218],0.742,0.493,0.431,0.575,0.539,0.681,0.885,0.459,0.463,0.91,0.383,0.727,0.493,0.909,0.778,0.45
VHNLDYFKETT [FGFR3_Y647_K650E_YF],0.853,0.469,0.5,0.597,0.614,0.438,0.854,0.437,0.446,0.723,0.425,0.598,0.445,1.11,0.668,0.457
